Measured values as given in the supplement of paper PMC9170038.

Tested on: K4 kissing-loop RNA reporter
Experiment: apparent KD of K4 kissing-loop reporter; higher = weaker reporter binding
Conditions: Eterna round: R107; input ligand: theophylline 20 uM
Description: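 RNA-MaP round R107: designed RNA switches with theophylline, tryptophan, arginine or FMN aptamers are transcribed on-chip within common flanks. They are titrated with a labelled K4 kissing-loop RNA reporter in RNA-MaP buffer (100 mM Tris pH 7.5, 80 mM KCl, 4 mM MgCl2), without ligand or with the indicated ligand. Median apparent KD per design.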
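Further: bound reporter read as fluorescence of individual clusters on recovered sequencing chips by microscopy, with normalized cluster intensities fitted with a binding model.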

Sequence | apparent KD of K4 kissing-loop reporter [µM]
UCGGCGUACGGGCGGGUAGUGAUGUUGCUCCGAGGACCGGUACGGCCGCCACUCGAGGUACCAGUUCAUAGAACCUGGCACAUCA [theeternabot_exclusion_KL_Trp_A_23] | 0.261
GGCUCCUACGGAGGAUAUAGUAGCCCAGAGUGAUGUUCUAGGGUGUUUUCCGAUUUAGUCAUUGUUCUAGAAGGCCGUAGGAGCC | 0.183
UAAGAGGACCACUGCGAGAGUCCUCGAAUACGAGGACCGGUACGGCCGCCACUCGAUAAUUUGCAGUGAUGUUGCAAGUAAGAAU [BrourdMod 6 - Jieux - Same State Tryptophan A] | 0.104
GAGGCCAGACGGAGUGAUGUUUCGUAUGAUACCAGCAGCGAAAGCUGCCCUUGGCAGCAUGCCACGGCCUCGGCGGGAAACCGCC | 0.446
UGUGGAGAAUAUGAUACCAGCAGUGAGAGAGAGGAAGUAUAGUGAUGUUAUAUGAGAGAAUGCCCUUGGCAGCAUAUGUAGUAGG [SSTheophylB.G] | 0.208
UAGGGCCCUGGAGGAUAUGAGUCUAGUGAUGUUAGGCGGUCCAUGCGCGUGGCGCGUUAUGCCCUUUUAGAAGGCCAGGGCCCUA [#2 Exclusion - FMN B Attempt #17 (HarryS)] | 0.0993
GGAUAGGAUAGAGGAUAUGGGCUAGGCAAGAAUAACUUGUCUAGCAAAUCCAUGAGGAGUGAUGUUCCAGAAGGCUGUCCUAUCG [FmnBX 1 U9] | 0.211
UAGUCAUACAGAGGAUAUCGUAUGAGUGAUGUUCAUACGACAUAAUCGAGUUGUAUCGAUGUUCGACGAGAAGGCUGUAUGACUA [FMN B Ex t1b] | 0.106
AAUAAGCGCCGAAGGAGCGGCCUCCGAGUGAUGUUCGGUGAGAUGCCAGUGAUGUUGGCCGGCCAGGUAGGUCGCGGCAAAGCUU [Same State Arginine B GF 29] | 0.131
AGGCACGAGCAAGGAUAUCGAGUAGAGUGAUGUUCUGCCUGGGUUGGCGCGCAAGGGCCUUCCCAGCGAGAAGGUGCUCGUGCCU [#2 Same State - FMN A Attempt #11 (HarryS)] | 0.682
AAGUCAUAGGCAGGAUAUGCAUUGUAAUAAGGCAAUAUAUACGUAUAGAGUGAUGUUUUGUACCAGGCAGAAGGGCUACAUCAGU [FMN B Excl V10 (+5A/U)] | 0.491

Same assay, conditions: Eterna round: R107; input ligand: tryptophan 2.4 mM

Sequence | apparent KD of K4 kissing-loop reporter [µM]
UUAGUCUAGAGAAGGAGCGAGUGAUGUUCGCAUGCUAUGAUGAAUUCAUCAUAGUUUAAUCCUCAGGUAGGUCGCUCUAGACAUU [AK7 Exc Arginine B] | 0.35
CGGAUGUAGUGAUGUUAUAUUAGAUGUAGACGAGGACCGGUACGGCCGCCACUCGUGAUGGCUGCUAGCGCGUUGCGAGGUUUGC [ExTryptoA.Co] | 0.386
UUUUGGUUCUGAGGAUAUUCGAAGAAAUAUAGUGAUGUUAUAUAAGGAGGAGGAUGUAGGGAGGAAGGAGAAGGCAGAAGAGGAG [ExFMNB.J] | 0.48
CGAUCUGAUAGCAGUGAUGUUGCUACAGAUACCAGUCCAGAUCGAGACCCUUGGCAGCUGACCCGGCAUGUGCUAUGGUAGAUCG [Theo A Ex t1] | 0.146
AAAUAGGUGUGCGAUACCAGCCGGAGUGAUGUUCCGUGUUGUACUGGCUGCACCUACGCCGGCCCUUGGCAGCGUGCUCCAUUUA [Enonin] | 0.148
AAAGCAUUGAGAAGGAGCGUGACGUGGAGUGAUGUUCCAUUGUAGUAAUAAUUACUACUAUCACAGGUAGGUCGCUCAUUGCUAA [JR_Nu_SSArginiB_Sub024] | 0.18
GGAUAGGACAGAGGAUAUCUCUGAGGCAAGAAAACUUGUCUCUAAAGAGAUGACUCAGUGAUGUUGAGAGAAGGCUGUCCUAUCG [FmnBX 9 - #SwitchBubble #StaticStem] | 0.148
AAACCAAUCAGAGGAUAUUCUUUAUUCGACAUAACCUUCUAUAAGGUGCAGUGAUGUUGCAAUAUAGGAGAAGGCUGAUUGACAA [Exclusion FMN B Gf 13] | 0.413
UGAUAGGACAGAAGGAGCGGAGGUCGUCAAAGACGACCAAUACGUUAAAUAGGAGUGAUGUUCCAGGUAGGUCGCUGUCCUAUCU [ArgBX 30 #SwitchBubble #StaticStem] | 0.106
GUCCCAGUGAUGUUGGUAGGCGGGCGGGAUACCAGCGGAGACUCACGCCCUUGGCAGCCCACAUAUCCCGCGUAGGGAUUAGCCC [Same State - Theophylline A (Freestyle 23)] | 0.275
AGUGCACUGUCAGGAUAUGUACAGUGAUGUUGUGUAUGUCAGCAAGUCAAAGACUUGCUCUUCUGUGCAGAAGGGACUGUGUACA [Omei KL FMN B Exc A v5] | 0.554
GAUAUAGUGAUGUUAUAUACUGAUAGACAACGAGGACCGGUACGGCCGCCACUCGAGAGGGUGAAAAUAAUGAUAAAAUAAUAAU [ExyTryA#1] | 0.265
UGUACCGAGUUAGGAUAUGUCGUCGAAAGACGAAAUGGAGUGAUGUUCCUUAAACUGCGAAAGCAGACAGAAGGGAUUUGGUACU [FmnBS 29 U11+U77] | 0.378
AAUGUGCAGGGAAGGAGCGUAGUCCAGUGCUGUUGGAGUUAGAUACCAGUGAUGUUGGUUAUACAGGUAGGUCGCCCUAAAGCGC [whbob_Ex_Arginine_B_2th161] | 0.13
UCUGUACCGGGAAGGAGCGUGAAUGAGAAUGGAUAUAGUGAUGUUAUGUAUACGAACGAAUCGCAGGUAGGUCGCCCGGAUCCCU [SSArgB.aA] | 0.467
AUUCACCUGUCGGCCGCCACUGCGUUAGCAGUAUCGGGCAGAAACUUCGCAGUGAUGUUGCGACUCAGGACCGGGACGUUGAGGA [theeternabot_exclusion_KL_Trp_B_29] | 0.504
AGGGAUGUUAAAGGAUAUAGAAAGUGAUGUUAGAAAGUGAGUGAUGUUGAUGUAAGUGAUGUUAUGUUAGAAGGUUAACAAAACG [ab] | 0.17
CCGAGCUACAGCGAUACCAGUGUGGAGUGAUGUUCCCUGGUCCGGGCUGUUGUUCCCUUGCGCCCUUGGCAGCGCAGAAGCAGCU [Exclusion Theophylline B GF 14] | 0.396
CCUAUCUCAUACGAUACCAGUGAAUAACCAGUGAUGUUGGAAUAACCAAGGAAUAUUUUACACCCUUGGCAGCGUAUGGGAUAGG [Ex Theophylline B K4 25] | 0.269
AUUAAUUUCAGAGGAUAUCGUUAUUUUAUUUAAUUUAUUCAUUUAUGCAGUGAUGUUGCUAUUAUUCGAGAAGGCUGAUUUAUAA [JR_ExcFMNB_Sub006] | 0.0353
AAACUUGCAGUGAUGUUGCAAGUAGGUGAUACCAGCAUCGAAAGAUGCCCUUGGCAGCACCAUCUUGCAACAAAGGUGCUGCCAA [(H1)-(H2)-(T1)-(T2)-(H)'-(T)'_Design7] | 0.0812

Sequence | apparent KD of K4 kissing-loop reporter [µM]
GGAAGACACCUGAGUGAUGUUCGGGUGUGCCGAGGACCGGUACGGCCGCCACUCGGGUGGUACAGUUACUGAUUGGACCGCUAUC [Arbirace] | 0.204
AUUAAUUUCAGAGGAUAUCGUUAUUUUUUAUAUUUUAUUCAUUUAUGCAGUGAUGUUGCUAUUAUUCGAGAAGGCUGAUUUAUAA [JR_ExcFMNB_Sub004] | 0.0509
AAGGCCACGAGAAGGAGCGUGUUGUGGAGUGAUGUUCCACUGUAGACCUAAGGUCUACAGGCACAGGUAGGUCGCUCGUGGUCAA [Omei KL Arginine B SS A v6] | 0.127
UUUGUAUAGGGAAGGAGCGUGAAUGAUAAUGAAUAUAGUGAUGUUAUAUAUAAGAAAGAAUCACAGGUAGGUCGCCCGGAGGAGG [SSArgB.J] | 0.428
AAAUUUAUUAUAUUUGAAUAAAUAUGUGAUACCAGACAUUUAUAAGUCCCUUGGCAGCACAAUGCAGUGAUGUUGCUUAUAAUAA [JR_SSTheophyA_Sub018] | 0.0738
GGAUAGGAUAGAGGAUAUGGAUUAGGCAAGAAUAACUUGUCUUGUAAAUCCAUGAGGAGUGAUGUUCCAGAAGGCUGUCCUAUCG [MatMod 6 - Jieux - Exclusion - FMN B] | 0.0943
UAGUAUAAUCUGUCGUUUACAAUAUUUAGUCAGGAUAUCGUAUAUUCGAGAAGGGACACUAUCUAGUGAUGUUAGAUAUUUCUUU [JR_ExcFMNA_Sub013] | 0.0528
AGCAGUGAUGUUGCAUUUAUAAUGACCGAUACCAGUAUCGAUAGAUACCCUUGGCAGCGGAUUUCCGCAACGACUAGGAAACUAG [Ex Theophylline A K4 14] | 0.283
GUCAUCAGAUCGCAAGAUCUGAUAGCCGAUACCAGCGCGAAGGUGCGCCCUUGGCAGCGGCACCGAGUGAUGUUCGGUCAGACGG [#2 Same State - Theophylline A Attempt #4 (HarryS)] | 0.594
UUUCGUUGAAGUGAUACCAGACUUGAAAGUGAUGUUUUCCAAUAAUUUAAAUUUUUAGCUGUCCCUUGGCAGCACAGUUUAUUUA [JR_Nu_ExcTheophyB_Sub025] | 0.181
UCGGCGUACGGGCGGGUAGUGAUGUUGCUCCGAGGACCGGUACGGCCGCCACUCGAGGUACCAGUUCAUAGAACCUGGCACAUCA [theeternabot_exclusion_KL_Trp_A_23] | 0.266
GGCUCCUACGGAGGAUAUAGUAGCCCAGAGUGAUGUUCUAGGGUGUUUUCCGAUUUAGUCAUUGUUCUAGAAGGCCGUAGGAGCC | 0.21
UAAGAGGACCACUGCGAGAGUCCUCGAAUACGAGGACCGGUACGGCCGCCACUCGAUAAUUUGCAGUGAUGUUGCAAGUAAGAAU [BrourdMod 6 - Jieux - Same State Tryptophan A] | 0.0486
GAGGCCAGACGGAGUGAUGUUUCGUAUGAUACCAGCAGCGAAAGCUGCCCUUGGCAGCAUGCCACGGCCUCGGCGGGAAACCGCC | 0.384
UGUGGAGAAUAUGAUACCAGCAGUGAGAGAGAGGAAGUAUAGUGAUGUUAUAUGAGAGAAUGCCCUUGGCAGCAUAUGUAGUAGG [SSTheophylB.G] | 0.188
UAGGGCCCUGGAGGAUAUGAGUCUAGUGAUGUUAGGCGGUCCAUGCGCGUGGCGCGUUAUGCCCUUUUAGAAGGCCAGGGCCCUA [#2 Exclusion - FMN B Attempt #17 (HarryS)] | 0.0924
GGAUAGGAUAGAGGAUAUGGGCUAGGCAAGAAUAACUUGUCUAGCAAAUCCAUGAGGAGUGAUGUUCCAGAAGGCUGUCCUAUCG [FmnBX 1 U9] | 0.128
UAGUCAUACAGAGGAUAUCGUAUGAGUGAUGUUCAUACGACAUAAUCGAGUUGUAUCGAUGUUCGACGAGAAGGCUGUAUGACUA [FMN B Ex t1b] | 0.111
AAUAAGCGCCGAAGGAGCGGCCUCCGAGUGAUGUUCGGUGAGAUGCCAGUGAUGUUGGCCGGCCAGGUAGGUCGCGGCAAAGCUU [Same State Arginine B GF 29] | 0.128
AGGCACGAGCAAGGAUAUCGAGUAGAGUGAUGUUCUGCCUGGGUUGGCGCGCAAGGGCCUUCCCAGCGAGAAGGUGCUCGUGCCU [#2 Same State - FMN A Attempt #11 (HarryS)] | 0.634
AAGUCAUAGGCAGGAUAUGCAUUGUAAUAAGGCAAUAUAUACGUAUAGAGUGAUGUUUUGUACCAGGCAGAAGGGCUACAUCAGU [FMN B Excl V10 (+5A/U)] | 0.416
